IntAct's records for PubMed 11575918

B1: RING finger protein Z (Lymphocytic choriomeningitis virus (strain Armstrong)), P18541 (parent)
chain: MGQGKSREEKGTNSTNRAEILPDTTYLGPLSCKSCWQKFDSLVRCHDHYLCRHCLNLLLSVSDRCPLCKYPLPTRLKISTAPSSPPPYEE

Variants of: B1
Conditions: with if4e_human EIF4E

Variant | effect of a mutation on the interaction
MGQGKSREEKGTNSTNRAEILPDTTYLGPLSCKSCWQKFDSLVRCHDHYLCRHCLNLLLSVSDRAPLAKYPLPTRLKISTAPSSPPPYEE | decreasing interaction
MGQGKSREEKGTNSTNRAEILPDTTYLGPLSGKSFWQKFDSLVRCHDHYLCRHCLNLLLSVSDRCPLCKYPLPTRLKISTAPSSPPPYEE | decreasing interaction
